# Data: publication PMC7773337 (2020)
# B1: zz-LAP1B(98-136)-His6 wild-type (domain or fragment)
# chain: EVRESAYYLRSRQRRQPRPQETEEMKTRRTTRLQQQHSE
# B2: zz-LAP1B(98-136)-2E His6 (S108E, T124E) (domain or fragment)
# chain: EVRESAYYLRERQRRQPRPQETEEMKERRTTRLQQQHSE
# Molecular target: reconstituted mononucleosomes (histone octamer on Widom '601' DNA)
binder,measurement,value
B1,Kd,0.43 µM
B2,Kd,9.13 µM
